According to publication PMC5067715, “Structural characterization of the circadian clock protein complex composed of KaiB and KaiC by inverse contrast-matching small-angle neutron scattering” (Scientific Reports, 2016):
Numbering of substitutions follows the chain as printed.

T1: wild-type KaiC (Synechococcus elongatus PCC 7942, UniProt Q79PF4 1-519)
T1 construct: KaiC, circadian clock protein of Synechococcus elongatus PCC 7942; also called KaiCWT; source: Escherichia coli, Strep-tagged recombinant protein, purified
T1 sequence (looked up): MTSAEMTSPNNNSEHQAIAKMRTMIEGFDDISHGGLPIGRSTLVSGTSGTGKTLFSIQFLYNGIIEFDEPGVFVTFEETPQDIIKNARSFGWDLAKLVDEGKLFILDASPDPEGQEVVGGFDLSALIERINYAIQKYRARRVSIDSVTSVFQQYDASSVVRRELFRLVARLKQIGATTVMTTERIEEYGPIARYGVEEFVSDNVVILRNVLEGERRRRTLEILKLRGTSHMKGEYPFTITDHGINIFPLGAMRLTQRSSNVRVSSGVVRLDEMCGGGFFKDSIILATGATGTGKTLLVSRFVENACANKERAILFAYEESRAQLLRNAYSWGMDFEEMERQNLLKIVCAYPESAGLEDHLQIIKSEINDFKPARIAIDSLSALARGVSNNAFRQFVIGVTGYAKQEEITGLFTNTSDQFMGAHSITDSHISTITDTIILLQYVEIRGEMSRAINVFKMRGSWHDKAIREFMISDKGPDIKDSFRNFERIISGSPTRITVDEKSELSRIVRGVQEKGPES

T2: KaiCDE (KaiC mutant with aspartate and glutamate residues at positions 431 and 432) (Synechococcus elongatus PCC 7942, UniProt Q79PF4 1-519, aspartate at position 431 | glutamate at position 432)
T2 construct: KaiC, circadian clock protein of Synechococcus elongatus PCC 7942, mimic of hyperphosphorylated KaiC; source: Escherichia coli, Strep-tagged recombinant protein, purified
T2 sequence (looked up): T1 sequence (looked up) with S431D, T432E

B1: KaiCDT (KaiC phospho-mimicking mutant with aspartate at Ser431) (natural protein, Synechococcus elongatus PCC 7942, UniProt Q79PF4 1-519, looked up)
chain: T1 sequence (looked up) with S431D
notes: KaiC, circadian clock protein of Synechococcus elongatus PCC 7942, mono-phosphorylation mimic at Ser431; 72d-KaiCDT is the same protein, 72.2% deuterated, used in iCM-SANS; Printed mass of KaiC 65 kDa; also called h-KaiCDT; 72d-KaiCDT
B2: KaiB (natural protein, Synechococcus elongatus PCC 7942, UniProt Q79PF5 1-102, looked up)
chain: MSPRKTYILKLYVAGNTPNSVRALKTLKNILEVEFQGVYALKVIDVLKNPQLAEEDKILATPTLAKVLPLPVRRIIGDLSDREKVLIGLDLLYGELQDSDDF
notes: KaiB, circadian clock protein of Synechococcus elongatus PCC 7942; printed mass of KaiB 14 kDa; Six KaiB protomers stand in the complex with the KaiC hexamer; also called h-KaiB; source: Escherichia coli, Strep-tagged recombinant protein, purified

Columns and labels:
[1] = molecular target: the molecule itself; assay: native MS; nanoflow ESI-MS under non-denaturing conditions; 20 uM KaiCDT mixed with 3.3, 10, 20 and 30 uM KaiB (monomer), 30 °C for 4 h, exchanged into 150 mM ammonium acetate pH 7.5
wild-type KaiC = molecular target: T1, wild-type KaiC; assay: native gel or EMSA; BN-PAGE (NativePAGE Novex Bis-Tris gel); KaiC variants incubated with KaiB at 30 °C for 12 h; conditions: both partners purified
[2] = molecular target: T2, KaiCDE (KaiC mutant with aspartate and …); assay: as above; conditions: both partners purified
[3] = molecular target: B1; assay: native MS; nanoflow ESI-MS under non-denaturing conditions; 20 uM KaiCDT mixed with 3.3, 10, 20 and 30 uM KaiB (monomer), 30 °C for 4 h, exchanged into 150 mM ammonium acetate pH 7.5; conditions: both partners purified

binding result (wild-type KaiC) | binding result [2] | stoichiometry N [3] | Binder | stoichiometry N [1]
– | – | – | B1 | 6
binds | binds | 6 KaiB protomers per KaiC hexamer | B2 | –
